System: T1, recombinant syndecan-1
T1 sequence (P18827 whole entry, species assumed, looked up): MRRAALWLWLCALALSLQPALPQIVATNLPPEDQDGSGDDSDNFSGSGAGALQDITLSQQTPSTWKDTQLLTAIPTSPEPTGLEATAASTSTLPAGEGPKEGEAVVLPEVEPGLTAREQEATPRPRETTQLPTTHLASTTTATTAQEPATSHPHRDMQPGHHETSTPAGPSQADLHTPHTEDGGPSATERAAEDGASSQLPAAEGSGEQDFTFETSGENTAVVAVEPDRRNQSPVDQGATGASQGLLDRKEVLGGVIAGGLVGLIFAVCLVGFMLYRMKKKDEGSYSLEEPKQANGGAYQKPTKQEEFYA

Substance: recombinant GzmB
- in vitro syndecan-1 cleavage assay (coomassie gel); GzmB 500 nM, syndecan-1 0.7 ug: syndecan-1 was cleaved by all three granzymes

— patent US20220031820
